# Source: patent publication US20220143148A1, “COMPOSITIONS AND METHODS FOR MODULATING CGRP SIGNALING TO REGULATE INTESTINAL INNATE LYMPHOID CELLS” (The Broad Institute, Inc., priority 2019, published 2022)
# B1: OVA (protein, UniProt P01012 2-386, looked up)
# Ovalbumin: GSIGAASMEFCFDVFKELKVHHANENIFYCPIAIMSALAMVYLGAKDSTRTQINKVVRFDKLPGFGDSIEAQCGTSVNVHSSLRDILNQITKPNDVYSFSLASRLYAEERYPILPEYLQCVKELYRGGLEPINFQTAADQARELINSWVESQTNGIIRNVLQPSSVDSQTAMVLVNAIVFKGLWEKAFKDEDTQAMPFRVTEQESKPVQMMYQIGLFRVASMASEKMKILELPFASGTMSMLVLLPDEVSGLEQLESIINFEKLTEWTSSNVMEERKIKVYLPRMKMEEKYNLTSVLMAMGITDVFSSSANLSGISSAESLKISQAVHAAHAEINEAGREVVGSAEAGVDAASVSEEFRADHPFLFCIKHIATNAVLFFGRCVSP
# Tested on: small intestinal immune cells
# Assay: Droplet-based scRNA-seq of small intestinal immune cells (LP and PP), OVA vs PBS, clustering and differential expression
# Format: in vivo, mouse
# Details: PP
# Text: To comprehensively characterize small intestinal immune cells, Applicants generated scRNA-Seq profiles for 58,067 immune cells collected from lamina propria (LP) and Peyer's patch (PP) regions at steady state and after induction of a type 2 inflammatory reaction to ovalbumin (OVA) (Brandt et al., 2003) (FIGS. 1A and 8A). To ensure sufficient representation of rare cells, Applicants combined a normalization strategy—removing by flow sorting either a portion of IgD+ naïve B cells, which are the most abundant cell type in PPs, or all CD19+ and CD3+ T cells (FIG. 8B, Methods)—with profiling of a sufficiently large number of cells number (P>0.99 to recover at least 15 cells from each cluster, Methods) by massively parallel scRNA-seq (Haber et al., 2017) (Methods). Applicants obtained 36,797 and 21,270 high quality cells passing initial filtering (Methods) from PP and LP regions, respectively.
# Overall, Applicants annotated 27 cell subsets across the two compartments, spanning T cells, B cells, ILCs, dendritic cells (DCs), myeloid cells and stromal cells, in frequencies ranging from 0.07% to 14%. Briefly, Applicants first partitioned the cells from the PP regions by unsupervised clustering (Methods) into 46 clusters, retained the 97% of cells that were robustly assigned cell identities in each cluster (Methods), assigned the cells from the LP regions to the 46 clusters using a classifier (Methods), and visualized the data with scvis (Ding et al., 2018), a deep generative model-based method (FIGS. 1B and 8C, Methods). Next, Applicants identified genes that were differentially expressed between the cells in each cluster and the remaining cells (Table 1, Methods), as well as between pairs of clusters (Table 2), to elucidate identities of similar cell types/states. Applicants excluded from downstream analysis clusters mostly consisting of contaminants from epithelium, likely doublets, or cells with a small number of Unique Molecular Identifiers (UMIs) (FIGS. 1C and 8D), or lacking distinct markers (Methods). Altogether, Applicants retained 27 clusters spanning 85% of the cells and each associated with distinct marker genes (FIG. 8E, Methods).
# To induce allergic reaction to OVA, 6 to 7 weeks old mice were sensitized twice, two weeks apart, with 50 μg of OVA plus 1 mg of aluminum potassium sulfate adjuvant via intraperitoneal injection. Two weeks later, mice were orally administered with 50 mg of OVA on every other day for a total of five times. 1 μg of α-CGRP peptide was administered simultaneously when indicated. Mice were deprived of food for 3-4 hours in cages with wood chip bedding for limiting antigen degradation in the stomach before each intragastric challenge.
# Isolation of cells from Peyer's patches (PPs). Peyer's patches (PPs) were carefully dissected from the small intestine under a stereo microscope using a fine scissor, pierced once with a fine forcep. Tissues were digested in freshly made digestion buffer (RPMI-1640 containing 100 μg/ml Liberase™ and 50 μg/ml DNase I at 37° C. on a roto-mixer. After 15 min, tissues were very gently mixed using a 1 ml pipette. The supernatant was collected and added to ice-cold MACS buffer (pH 7.4; PBS plus 2% FCS and 2 mM EDTA). Pre-warmed (37° C.) fresh digestion buffer was added to the remaining tissues. After rotation at 37° C. for 15 min, the mixture was vigorously mixed using a 1 ml pipette for 1 min. Supernatants from the two steps were combined and passed through 70 μm filters and stained for FACS (below).
# Isolation of cells from the lamina propria (LP). The small intestines were opened longitudinally and washed in ice-cold PBS. For scRNA-seq, roughly 0.5 cm of fragments from each of the distal, middle and proximal regions without visible PPs were collected. Epithelial cells were dissociated by tissue rotation in pre-warmed (37° C.) PBS containing 10 mM EDTA at 37° C. for 15 min, followed by additional incubation on ice for 15 min. Tissues were then shaken vigorously. […]
molecule,measurement,setting,value
B1,Ptprcap LN (average fold change),"cluster ID 8, OVA vs PBS",0.276
same,Rab35 LN (average fold change),"cluster ID 8, OVA vs PBS",0.478
same,Rac2 LN (average fold change),"cluster ID 8, OVA vs PBS",0.169
same,Rel LN (average fold change),"cluster ID 8, OVA vs PBS",−0.595
same,Rgs1 LN (average fold change),"cluster ID 8, OVA vs PBS",0.795
same,Rnf125 LN (average fold change),"cluster ID 8, OVA vs PBS",−0.483
same,Rnf157 LN (average fold change),"cluster ID 8, OVA vs PBS",−0.362
same,Rora LN (average fold change),"cluster ID 8, OVA vs PBS",−0.455
same,Rrad LN (average fold change),"cluster ID 8, OVA vs PBS",−0.602
same,Rsrp1 LN (average fold change),"cluster ID 8, OVA vs PBS",0.318
same,Samd9l LN (average fold change),"cluster ID 8, OVA vs PBS",0.479
same,Samsn1 LN (average fold change),"cluster ID 8, OVA vs PBS",−0.280
same,Sh2d1a LN (average fold change),"cluster ID 8, OVA vs PBS",0.388
same,Sik1 LN (average fold change),"cluster ID 8, OVA vs PBS",−0.527
same,Skil LN (average fold change),"cluster ID 8, OVA vs PBS",−0.410
same,Sla LN (average fold change),"cluster ID 8, OVA vs PBS",0.486
same,Slfn2 LN (average fold change),"cluster ID 8, OVA vs PBS",0.342
same,Sp100 LN (average fold change),"cluster ID 8, OVA vs PBS",0.330
same,Taf10 LN (average fold change),"cluster ID 8, OVA vs PBS",−0.372
same,Tfam LN (average fold change),"cluster ID 8, OVA vs PBS",−0.555
same,Tgif1 LN (average fold change),"cluster ID 8, OVA vs PBS",−0.580
same,Tm6sf1 LN (average fold change),"cluster ID 8, OVA vs PBS",0.360
same,Traf1 LN (average fold change),"cluster ID 8, OVA vs PBS",−0.355
same,Tsc22d3 LN (average fold change),"cluster ID 8, OVA vs PBS",0.472
same,Tuba4a LN (average fold change),"cluster ID 8, OVA vs PBS",−0.361
same,Txndc5 LN (average fold change),"cluster ID 8, OVA vs PBS",0.592
same,Txnip LN (average fold change),"cluster ID 8, OVA vs PBS",1.190
same,Ube2s LN (average fold change),"cluster ID 8, OVA vs PBS",−0.248
same,VgIl4 LN (average fold change),"cluster ID 8, OVA vs PBS",−0.452
same,Vps37b LN (average fold change),"cluster ID 8, OVA vs PBS",−0.178
same,Zc3h12a LN (average fold change),"cluster ID 8, OVA vs PBS",−0.680
same,Zfp36l2 LN (average fold change),"cluster ID 8, OVA vs PBS",0.382
same,Zfp512 LN (average fold change),"cluster ID 8, OVA vs PBS",0.523
same,AC125149.3 percentage of expressing cells in OVA-treated group,cluster ID 9,0.619
same,Actg1 percentage of expressing cells in OVA-treated group,cluster ID 9,1
same,Apobec1 percentage of expressing cells in OVA-treated group,cluster ID 9,0.86
same,Basp1 percentage of expressing cells in OVA-treated group,cluster ID 9,0.871
same,Cdk1 percentage of expressing cells in OVA-treated group,cluster ID 9,0.478
same,Cks1brt percentage of expressing cells in OVA-treated group,cluster ID 9,0.262
same,Ddit4 percentage of expressing cells in OVA-treated group,cluster ID 9,0.241
same,Eif2ak3 percentage of expressing cells in OVA-treated group,cluster ID 9,0.384
same,Hspa8 percentage of expressing cells in OVA-treated group,cluster ID 9,0.995
same,Igha percentage of expressing cells in OVA-treated group,cluster ID 9,0.566
same,Ighg3 percentage of expressing cells in OVA-treated group,cluster ID 9,0.211
same,Il2 percentage of expressing cells in OVA-treated group,cluster ID 9,0.244
same,Lnx2 percentage of expressing cells in OVA-treated group,cluster ID 9,0.191
same,Malat1 percentage of expressing cells in OVA-treated group,cluster ID 9,1
same,Mcpt1 percentage of expressing cells in OVA-treated group,cluster ID 9,0.156
same,Narf percentage of expressing cells in OVA-treated group,cluster ID 9,0.441
same,Nme2 percentage of expressing cells in OVA-treated group,cluster ID 9,0.4
same,Rsrp1 percentage of expressing cells in OVA-treated group,cluster ID 9,0.796
same,Tsc22d3 percentage of expressing cells in OVA-treated group,cluster ID 9,0.669
same,Tubb5 percentage of expressing cells in OVA-treated group,cluster ID 9,0.966
same,Uba52 percentage of expressing cells in OVA-treated group,cluster ID 9,0.996
same,Ubb percentage of expressing cells in OVA-treated group,cluster ID 9,0.998
same,Wdr89 percentage of expressing cells in OVA-treated group,cluster ID 9,0.993
same,Zfp36l2 percentage of expressing cells in OVA-treated group,cluster ID 9,0.758
same,AC125149.3 LN (average fold change),"cluster ID 9, OVA vs PBS",0.342
same,Actg1 LN (average fold change),"cluster ID 9, OVA vs PBS",−0.161
same,Apobec1 LN (average fold change),"cluster ID 9, OVA vs PBS",0.201
same,Basp1 LN (average fold change),"cluster ID 9, OVA vs PBS",−0.559
same,Cdk1 LN (average fold change),"cluster ID 9, OVA vs PBS",−0.396
same,Cks1brt LN (average fold change),"cluster ID 9, OVA vs PBS",1.033
same,Ddit4 LN (average fold change),"cluster ID 9, OVA vs PBS",0.791
same,Eif2ak3 LN (average fold change),"cluster ID 9, OVA vs PBS",0.581
same,Hspa8 LN (average fold change),"cluster ID 9, OVA vs PBS",−0.426
same,Igha LN (average fold change),"cluster ID 9, OVA vs PBS",0.227
same,Ighg3 LN (average fold change),"cluster ID 9, OVA vs PBS",1.831
same,Il2 LN (average fold change),"cluster ID 9, OVA vs PBS",0.918
same,Lnx2 LN (average fold change),"cluster ID 9, OVA vs PBS",0.811
same,Malat1 LN (average fold change),"cluster ID 9, OVA vs PBS",−0.269
same,Mcpt1 LN (average fold change),"cluster ID 9, OVA vs PBS",2.708
same,Narf LN (average fold change),"cluster ID 9, OVA vs PBS",0.449
same,Nme2 LN (average fold change),"cluster ID 9, OVA vs PBS",0.703
same,Rsrp1 LN (average fold change),"cluster ID 9, OVA vs PBS",−0.274
